The text below walks through data of doi:10.1101/2024.08.14.607909 (bioRxiv, 2024).

The series “crystal structure” deals with the molecule itself. The experiment in a line: crystal structure.
The series “SEC-SAXS” concerns the molecule itself. The experiment in a line: SEC-SAXS.

B1: C-terminal pentraxin domain of human PTX3 (domain or fragment)
chain: ELEGCETAILFPMRSKKIFGSVHPVRPMRLESFSACIWVKATDVLNKTILFSYGTKRNPYEIQLYLSYQSIVFVVGGEENKLVAEAMVSLGRWTHLCGTWNSEEGLTSLWVNGELAATTVEMATGHIVPEGGILQIGQEKNGCCVGGGFDETLAFSGRLTGFNIWDSVLSNEEIRETGGAESCHIRGNIVGWGVTEIQPHGGAQYVS
modifications: N-linked glycan at N220
As to B1, the binding result in “crystal structure” was “binds”.

B2: Δ1-24_PTX3 (PTX3 truncation mutant with residues 1-24 of the mature protein deleted) (domain or fragment, human)
chain: ELEDPTPCACGQEHSEWDKLFIMLENSQMRERMLLQATDDVLRGELQRLREELGRLAESLARPCAPGAPAEARLTSALDELLQATRDAGRRLARMEGAEAQRPEEAGRALAAVLEELRQTRADLHAVQGWAARSWLPAGCETAILFPMRSKKIFGSVHPVRPMRLESFSACIWVKATDVLNKTILFSYGTKRNPYEIQLYLSYQSIVFVVGGEENKLVAEAMVSLGRWTHLCGTWNSEEGLTSLWVNGELAATTVEMATGHIVPEGGILQIGQEKNGCCVGGGFDETLAFSGRLTGFNIWDSVLSNEEIRETGGAESCHIRGNIVGWGVTEIQPHGGAQYVS
modifications: N-linked glycan at N220
Regarding B2, in “SEC-SAXS”, the binding result was “binds”.
